The test addresses T1, Sec5 (S. cerevisiae, UniProt P89102 1-971).
T1 sequence: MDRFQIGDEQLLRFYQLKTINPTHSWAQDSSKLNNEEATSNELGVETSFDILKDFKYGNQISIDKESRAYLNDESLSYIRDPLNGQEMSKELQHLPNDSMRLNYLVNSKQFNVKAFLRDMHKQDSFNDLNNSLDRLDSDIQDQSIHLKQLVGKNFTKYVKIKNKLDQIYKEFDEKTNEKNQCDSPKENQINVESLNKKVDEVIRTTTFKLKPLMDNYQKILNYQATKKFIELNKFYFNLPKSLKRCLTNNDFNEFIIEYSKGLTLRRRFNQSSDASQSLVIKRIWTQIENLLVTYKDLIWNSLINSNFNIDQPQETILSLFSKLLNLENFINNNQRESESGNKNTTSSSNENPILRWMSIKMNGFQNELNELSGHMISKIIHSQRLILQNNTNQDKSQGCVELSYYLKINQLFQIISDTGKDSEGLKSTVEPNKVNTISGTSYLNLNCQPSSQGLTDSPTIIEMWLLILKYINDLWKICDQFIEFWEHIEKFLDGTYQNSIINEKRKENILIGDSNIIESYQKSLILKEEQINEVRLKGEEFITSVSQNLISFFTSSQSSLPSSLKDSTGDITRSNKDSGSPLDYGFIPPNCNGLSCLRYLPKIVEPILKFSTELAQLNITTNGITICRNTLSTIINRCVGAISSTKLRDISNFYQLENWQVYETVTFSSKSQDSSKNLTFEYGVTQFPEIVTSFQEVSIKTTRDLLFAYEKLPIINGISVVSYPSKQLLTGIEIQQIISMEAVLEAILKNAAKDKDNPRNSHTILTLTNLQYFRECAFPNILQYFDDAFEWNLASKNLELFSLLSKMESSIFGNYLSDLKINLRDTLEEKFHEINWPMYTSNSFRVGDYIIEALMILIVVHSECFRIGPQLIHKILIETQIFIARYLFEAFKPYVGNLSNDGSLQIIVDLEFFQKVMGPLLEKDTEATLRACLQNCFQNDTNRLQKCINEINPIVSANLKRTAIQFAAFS
In words: […].

B1: Exo84 (natural protein)
chain: MVEFSLKKARNNWKHVKKSASSPAKQKTPPSPAKPKQKTKKNPYSDLKDPATSYTLPTINARERSRVATSMQRRLSIHNTNYAPPTLDYSMPLPDMPNMIVPNDNVDSSHNNSSFTTENESVSSKGPSNSLNLSTADLSLNDSSYNKVPARSAMRNTVNPSGSNDPFNNSTSLRKMLANPHFNAKDFVHDKLGNASAITIDKFTSNLTDLSIQVQEEVKLNINKSYNEIMTVNNDLNVAMLELKRVRANINDLNEVLDQCTKIAEKRLQLQDQIDQERQGNFNNVESHSNSPALLPPLKAGQNGNLMRRDRSSVLILEKFWDTELDQLFKNVEGAQKFINSTKGRHILMNSANWMELNTTTGKPLQMVQIFILNDLVLIADKSRDKQNDFIVSQCYPLKDVTVTQEEFSTKRLLFKFSNSNSSLYECRDADECSRLLDVIRKAKDDLCDIFHVEEENSKRIRESFRYLQSTQQTPGRENNRSPNKNKRRSMGGSITPGRNVTGAMDQYLLQNLTLSMHSRPRSRDMSSTAQRLKFLDEGVEEIDIELARLRFESAVETLLDIESQLEDLSERISDEELMLLNLISLKIEQRREAISSKLSQSILSSNEIVHLKSGTENMIKLGLPEQALDLFLQNRSNFIQDLILQIGSVDNPTNYLTQLAVIRFQTIKKTVEDFQDIFKELGAKISSILVDWCSDEVDNHFKLIDKQLLNDEMLSPGSIKSSRKQIDGLKAVGLDFVYKLDEFIKKNSDKIR
B1: the binding result is “binds”.

Values taken from article PMC5971111 (Nature structural & molecular biology, 2018).
